According to PMC9047656 (ACS Nano, 2022):

Target: the molecule itself
Test: SEC-MALS

B1: canavalin (natural protein, Canavalia ensiformis (jack bean), UniProt P50477 27-445, looked up)
chain: HSGHSGGEAEDESEESRAQNNPYLFRSNKFLTLFKNQHGSLRLLQRFNEDTEKLENLRDYRVLEYCSKPNTLLLPHHSDSDLLVLVLEGQAILVLVNPDGRDTYKLDQGDAIKIQAGTPFYLINPDNNQNLRILKFAITFRRPGTVEDFFLSSTKRLPSYLSAFSKNFLEASYDSPYDEIEQTLLQEEQEGVIVKMPKDQIQEISKHAQSSSRKTLSSQDKPFNLRSRDPIYSNNYGKLYEITPEKNSQLRDLDILLNCLQMNEGALFVPHYNSRATVILVANEGRAEVELVGLEQQQQQGLESMQLRRYAATLSEGDIIVIPSSFPVALKAASDLNMVGIGVNAENNERNFLAGHKENVIRQIPRQVSDLTFPGSGEEVEELLENQKESYFVDGQPRHIDAGGKARRAHLPNLFRTFY
**Q.** Which “stoichiometry N” value does the source give for B1 here?
**A.** The value was 3.
